From patent US20180037631A1 (Bristol-Myers Squibb, published 2018)

B1: E46 (designed binder)
10Fn3 domain: MGVSDVPRDLEVVAATPTSLLISWQVGSVVYQYYRITYGETGGNSPVQEFTVPRDVLTATISGLKPGVDYTITVYAVTDYKPKPDGPHIYQAVPISINYRTEIDKPSQ
B2: E47 (designed binder)
10Fn3 domain: MGVSDVPRDLEVVAATPTSLLISWNPASKDYQYYRITYGETGGNSPVQEFTVPGQVPTATISGLKPGVDYTITVYAVTDFYNPATHEYKYDSTPISINYRTEIDKPSQ
B3: E48 (designed binder)
10Fn3 domain: MGVSDVPRDLEVVAATPTSLLISWRSSATAYQYYRITYGETGGNSPVQEFTVPGRVYTATISGLKPGVDYTITVYAVTDFFNWATHEYIYHSTPISINYRTEIDKPSQ
B4: E49 (designed binder)
10Fn3 domain: MGVSDVPRDLEVVAATPTSLLISWHSGPREYQYYRITYGETGGNSPVQEFTVPGQVYTATISGLKPGVDYTITVYAVTDFFNPITHYYYYELTPISINYRTEIDKPSQ
B5: E50 (designed binder)
10Fn3 domain: MGVSDVPRDLEVVAATPTSLLISWTVGLSVYQYYRITYGETGGNSPVQEFTVPGMVSTATISGLKPSVDYTITVYAVTDYKPHADGPHTYHEYPISINYRTEIDKPSQ
B6: E51 (designed binder)
10Fn3 domain: MGVSDVPRDLEVVAATPTSLLISWGGHRAVYQYYRITYGETGGNSPVQEFTVPGAVYTATISGLKPGVDYTITVYAVTDYYNPDTHEYKYHQYPISINYRTEIDKPSQ
B7: E52 (designed binder)
10Fn3 domain: MGVSDVPRDLEVVSATPTSLLISWQVPRPMYQYYRITYGETGGNSPVQEFTVPGGVRTATISGLKPGVDYTITVYAVTDYWFKEYREDPISINYRTEIDKPSQ
B8: E53 (designed binder)
10Fn3 domain: MGVSDVPRDLEVVAATPTSLLISWSVGGMIYQYYRITYGETGGNSPVQEFTVPGMVTTATISGLKPGVDYTITVYAVTDYYNPATHEYKYHQTPISINYRTEIDKPSQ
B9: E54 (designed binder)
10Fn3 domain: MGVSDVPRDLEVVAATPTSLLISWKASYTGYNYYRITYGETGGNSPVQEFTVPRDVMTATISGLKPGVDYTITVYAVTDFYNPDTHQYTYRRIPISINYRTEIDKPSQ
B10: E55 (designed binder)
10Fn3 domain: MGVSDVPRDLEVVAATPTSLLISWSVGQVFYQYYRITYGETGGNSPVQEFTVPYDVYTATISGLKPGVDYTITVYAVTDYYNPATHEYKYHQTPISINYRTEIDKPSQ
B11: E56 (designed binder)
10Fn3 domain: MGVSDVPRDLEVVAATPTSLLISWYSGDYHYQYYRITYGETGGNSPVQEFTVPHDLETATISGLKPGVDYTITVYAVTDYYNPATHYYKYEQTPISINYRTEIDKPSQ
B12: E57 (designed binder)
10Fn3 domain: MGVSDVPRDLEVVAATPTSLLISWIVQGGRYQYYRITYGETGGNSPVQEFTVPGMVTTATISGLKPGVDYTITVYAVTDYYNPSTHEYKYHQTPISINYRTEIDKPSQ
B13: E58 (designed binder)
10Fn3 domain: MGVSDVPRDLEVVAATPTSLLISWSAVRWRYQYYRITYGETGGNSPVQEFTVPGGVRTATISGLKPGVDYTITVYAVTDFYNPRTHVYIYDQFPISINYRTEIDKPSQ
B14: E24 (designed binder)
10Fn3 domain: MGVSDVPRDLEVVAATPTSLLISWQVPRPMYQYYRITYGETGGNSPVQEFTVPGQVPTATISGLKPGVDYTITVYAVTDSYNPATHEYKYHQTPISINYRTEIDKPSQ
B15: E25 (designed binder)
10Fn3 domain: MGVSDVPRDLEVVAATPTSLLISWGYQSGGYTYYRITYGETGGNSPVQEFTVPHDLRTATISGLKPGVDYTITVYAVTDYAYKEYQEHPISINYRTEIDKPSQ
B16: E26 (designed binder)
10Fn3 domain: MGVSDVPRDLEVVAATPTSLLISWWIGIPVYQYYRITYGETGGNSPVQEFTVPYDGKTATISGLKPGVDYTITVYAVTDMMHVEYAEYPISINYRTEIDKPSQ
B17: E27 (designed binder)
10Fn3 domain: MGVSDVPRDLEVVAATPTSLLISWSKGSKSYQYYRITYGETGGNSPVQEFTVPYHVYTATISGLKPGVDYTITVYAVTDYYNPATYEYIYLTTPISINYRTEIDKPSQ
B18: E28 (designed binder)
10Fn3 domain: MGVSDVPRDLEVVAATPTSLLISWNPGSKSYQYYRITYGETGGNSPVQEFTVPGGVRTATISGLKPGVDYTITVYAVTDFYNPDTHEYLYNQYPISINYRTEIDKPSQ
B19: E29 (designed binder)
10Fn3 domain: MGVSDVPRDLEVVAATPTSLLISWQPGTTHYQYYRITYGETGGNSPVQEFTVPYDLMTATISGLKPGVDYTITVYAVTDYYNPNTYEYIYLTTPISINYRTEIDKPSQ
B20: E30 (designed binder)
10Fn3 domain: MGVSDVPRDLEVVAATPTSLLISWAIGTIVYQYYRITYGETGGNSPVQEFTVPAGVYTATISGLKPGVDYTITVYAVTDYYDWATHEYNYHTAPISINYRTEIDKPSQ
B21: E31 (designed binder)
10Fn3 domain: MGVSDVPRDLEVVAATPTSLLISWTYNDGSYQYYRITYGETGGNSPVQEFTVPYAVYTATISGLKPGVDYTITVYAVTDFYNPATYEYIYHTTPISINYRTEIDKPSQ
B22: E18 (designed binder)
10Fn3 domain: MGVSDVPRDLEVVAATPTSLLISWFVTHVAYQYYRITYGETGGNSPVQEFTVPGGLSTATISGLKPGVDYTITVYAVTDYKPHADGPHTYHESPISINYRTEIDKPSQ
B23: E19 (designed binder)
10Fn3 domain: MGVSDVPRDLEVVAATPTSLLISWETESNAYQYYRITYGETGGNSPVQEFTVPGQIYTATISGLKPGVDYTITVYAVTDYKPHADGPHTYHESPISINYRTEIDKPSQ
B24: E20 (designed binder)
10Fn3 domain: MGVSDVPRDLEVVAATPTSLLISWMTSPSVYQYYRITYGETGGNSPVQEFTVPGPVQTATISGLKPGVDYTITVYAVTDYKEHQHAPHQYTAHPISINYRTEIDKPSQ

Target: T1, EGFR on the surface of human tumour cells (A431, H292) (human, UniProt P00533 25-1210)
Assay: cell-based or functional assay

**Q.** For B1, which “% inhibition of EGFR phosphorylation at 100 nM binder, cell-based assay” value (“% inhibition of EGFR phosphorylation” below) is on record?
**A.** 77%

**Q.** B2 was tested. Which “% inhibition of EGFR phosphorylation” value did it give?
**A.** 76.9%

**Q.** How did the “% inhibition of EGFR phosphorylation” value turn out when B3 was run?
**A.** 88.6%

**Q.** How did the “% inhibition of EGFR phosphorylation” value turn out when B4 was run?
**A.** 83.5%

**Q.** How did the “% inhibition of EGFR phosphorylation” value turn out when B5 was run?
**A.** 77.4%

**Q.** With B6 as the binder, how does the “% inhibition of EGFR phosphorylation” value read?
**A.** 82.8%

**Q.** With B7 as the binder, how does the “% inhibition of EGFR phosphorylation” value read?
**A.** 75.3%

**Q.** How did the “% inhibition of EGFR phosphorylation” value turn out when B8 was run?
**A.** 79.8%

**Q.** B9 was tested. Which “% inhibition of EGFR phosphorylation” value did it give?
**A.** 76.1%

**Q.** Which “% inhibition of EGFR phosphorylation” value does the source give for B10 here?
**A.** 99.1%

**Q.** With B11 as the binder, how does the “% inhibition of EGFR phosphorylation” value read?
**A.** 84.2%

**Q.** B12 was tested. Which “% inhibition of EGFR phosphorylation” value did it give?
**A.** 75.5%

**Q.** How did the “% inhibition of EGFR phosphorylation” value turn out when B13 was run?
**A.** 79.7%

Target: T1, EGFR on the surface of human tumour …
Assay: cell-based or functional assay
Remark: another data set of the same source

**Q.** How did the “% inhibition of EGFR phosphorylation” value turn out when B14 was run?
**A.** 90.3%

**Q.** With B15 as the binder, how does the “% inhibition of EGFR phosphorylation” value read?
**A.** 77.1%

**Q.** B16 was tested. Which “% inhibition of EGFR phosphorylation” value did it give?
**A.** 75.4%

**Q.** For B17, which “% inhibition of EGFR phosphorylation” value is on record?
**A.** 94.6%

**Q.** How did the “% inhibition of EGFR phosphorylation” value turn out when B18 was run?
**A.** 85.3%

**Q.** B19 was tested. Which “% inhibition of EGFR phosphorylation” value did it give?
**A.** 87.9%

**Q.** B20 was tested. Which “% inhibition of EGFR phosphorylation” value did it give?
**A.** 87.3%

**Q.** B21 was tested. Which “% inhibition of EGFR phosphorylation” value did it give?
**A.** 75.8%

**Q.** How did the “% inhibition of EGFR phosphorylation” value turn out when B22 was run?
**A.** 91.1%

**Q.** Which “% inhibition of EGFR phosphorylation” value does the source give for B23 here?
**A.** 84.6%

**Q.** B24 was tested. Which “% inhibition of EGFR phosphorylation” value did it give?
**A.** 80.2%
